Biological target: T1, recombinant human His6-tagged annexin A2 (human, UniProt P07355 1-339)
T1 construct: annexin A2, human, recombinant; No catalogue number is printed; also called His6-AnxA2; His6-tagged AnxA2; source: bought: Novus Biologicals
Assay: pull-down; about 20 µg concentrated culture supernatant (SPI-2 inducing conditions) mixed with 5 µg His6-annexin A2 overnight at 4 °C; Ni-Sepharose beads 2 h at room temperature; four washes in TBS-T (20 mM Tris-HCl, 150 mM NaCl, 0.75% Triton X-100); Western blot with anti-HA and anti-AnxA2; densitometry of 3 blots, with AnxA2 over without AnxA2
Settings: one partner purified

T1 sequence (P07355 whole entry): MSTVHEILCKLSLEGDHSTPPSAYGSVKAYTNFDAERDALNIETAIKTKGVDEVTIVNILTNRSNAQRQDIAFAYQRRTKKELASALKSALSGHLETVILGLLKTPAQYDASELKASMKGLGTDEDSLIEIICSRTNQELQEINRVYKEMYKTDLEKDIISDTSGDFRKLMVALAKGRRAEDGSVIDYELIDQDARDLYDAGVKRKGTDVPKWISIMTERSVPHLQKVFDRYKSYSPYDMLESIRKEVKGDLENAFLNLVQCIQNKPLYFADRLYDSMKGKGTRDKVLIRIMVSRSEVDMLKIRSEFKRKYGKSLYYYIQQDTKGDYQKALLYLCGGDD

B1: SopD2-2HA (natural protein)
chain: MPVTLSFGNRHNYEINHSRLARLMSPDKEEALYMGVWDRFKDCFRTHKKQEVLEVLYTLIHGCERENQAELNVDITGMEKIHAFTQLKEYANPSQQDRFVMRFDMNQTQVLFEIDGKVIDKCNLHRLLNVSENCIFKVMEEDEEELFLKICIKYGEKISRYPELLEGFANKLKDAVNEDDDVKDEVYKLMRSGEDRKMECVEWNGTLTEEEKNKLRCLQMGSFNITTQFFKIGYWELEGEVLFDMVHPTLSYLLQAYKPSLSSDLIETNTMLFSDVLNKDYDDYQNNKREIDAILRRIYRSHNNTLFISEKSSCRNMLI
notes: SopD2, T3SS2-secreted effector of Salmonella enterica serovar Typhimurium SL1344, under its native promoter in pACYC184; also called pSopD2-2HA; source: S. Typhimurium SL1344 T3SS2+ ΔsopD2 carrying pSopD2-2HA: translocated into infected HeLa cells, in lysate; secreted under SPI-2 inducing conditions (LPM pH 5.8), concentrated culture supernatant; not shown: 2xHA (tandem HA), C-terminal, kept
  fold change of effector pulled down with AnxA2 over without AnxA2: 12.3 fold

— PMC8655068, “Quantitative proteomic screen identifies annexin A2 as a host target for Salmonella pathogenicity island-2 effectors SopD2 and PipB2” (Scientific Reports, 2021)
